Measured values from paper PMC3164674.

Molecular target: MUC1 (mucin 1) on the surface of MCF-7 cells (human (MCF-7 breast cancer cell line)) (UniProt P15941)
Assay: flow cytometry on cells
Settings: 300 nM DNA; 5 mM Mg2+; MUC1+ MCF-7 vs MUC1- HepG2; S2.2 with 48-nt DNA spacer at 3' end; 100 mM NaCl, 5 mM MgCl2, pH 7.2, 300 nM DNA, 30 min; temperature not stated

Chain of UniProt P15941 (P15941 whole entry): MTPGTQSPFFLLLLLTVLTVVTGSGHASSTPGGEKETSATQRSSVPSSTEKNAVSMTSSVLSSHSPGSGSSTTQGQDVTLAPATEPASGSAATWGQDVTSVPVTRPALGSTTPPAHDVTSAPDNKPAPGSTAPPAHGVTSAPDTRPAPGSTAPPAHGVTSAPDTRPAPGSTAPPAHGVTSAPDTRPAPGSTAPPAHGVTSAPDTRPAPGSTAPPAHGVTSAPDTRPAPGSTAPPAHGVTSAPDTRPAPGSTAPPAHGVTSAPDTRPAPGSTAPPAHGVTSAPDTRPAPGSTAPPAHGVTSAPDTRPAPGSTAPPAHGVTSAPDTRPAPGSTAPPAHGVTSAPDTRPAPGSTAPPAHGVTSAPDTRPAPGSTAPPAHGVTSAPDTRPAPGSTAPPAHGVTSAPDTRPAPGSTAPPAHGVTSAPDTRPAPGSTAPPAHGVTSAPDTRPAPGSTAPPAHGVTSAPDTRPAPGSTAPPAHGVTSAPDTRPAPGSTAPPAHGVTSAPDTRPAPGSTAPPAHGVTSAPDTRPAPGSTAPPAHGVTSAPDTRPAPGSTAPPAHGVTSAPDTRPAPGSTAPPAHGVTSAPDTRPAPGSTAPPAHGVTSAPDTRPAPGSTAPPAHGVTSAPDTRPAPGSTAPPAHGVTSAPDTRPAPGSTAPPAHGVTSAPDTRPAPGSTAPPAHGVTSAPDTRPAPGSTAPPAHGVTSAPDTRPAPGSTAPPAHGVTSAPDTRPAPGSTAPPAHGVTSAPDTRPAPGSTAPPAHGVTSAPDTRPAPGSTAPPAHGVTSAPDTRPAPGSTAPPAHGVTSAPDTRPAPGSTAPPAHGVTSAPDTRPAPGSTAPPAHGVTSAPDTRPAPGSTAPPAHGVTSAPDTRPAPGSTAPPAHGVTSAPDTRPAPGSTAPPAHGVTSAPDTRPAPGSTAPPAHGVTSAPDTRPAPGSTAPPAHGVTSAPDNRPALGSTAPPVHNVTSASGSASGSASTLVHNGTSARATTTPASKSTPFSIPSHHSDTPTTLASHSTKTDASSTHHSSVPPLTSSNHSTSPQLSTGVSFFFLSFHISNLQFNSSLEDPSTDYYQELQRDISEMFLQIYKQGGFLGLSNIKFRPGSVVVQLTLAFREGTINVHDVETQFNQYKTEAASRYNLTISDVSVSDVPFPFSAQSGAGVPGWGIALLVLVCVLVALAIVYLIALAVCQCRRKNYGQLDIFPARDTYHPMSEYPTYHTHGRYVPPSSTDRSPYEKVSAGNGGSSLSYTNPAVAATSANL

GCAGTTGATCCTTTGGATACCCTGGTTCCCTTCCTTCTCTCTTCCTCTCTCCTTCTCTCTTCCTCTCTCCTTC [S2.2-spacer]
binding signal (fold (mean fluorescence MCF-7/HepG2)): 3.5
